Data published in patent US20120027677A1.

Biological target: PrP^Sc, pathogenic form of the human prion protein (from CJD brain homogenate) (human) (UniProt P04156)

## 3F4 antibody
  ave (RLU), vCJD BH: 56.3 RLU
